Results as given in the supplement of paper PMC11865577.

Tests used:
Experiment in all cases: pull-down binding Z-score (relative to library population); higher = stronger binding
[1] = tested on: G-clamp-N3 (biotin conjugate); conditions: RNA library: Library-1 (pre-miRNA loops + repeats)
Procedure, shortened: (§1)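 An RNA library (1 μg) carrying a Cy5 or Cy3 end label was heat-folded in phosphate/NaCl/KCl buffer, then incubated for 60 min at 25 °C with streptavidin beads loaded with 100 pmol of biotin-conjugated small molecule. The beads were washed three times, and bound RNA was released in hot SDS and hybridised to a DNA barcode microarray for 20 h at 55.5 °C. Each binding score was derived by subtracting the signal from beads without compound, averaging the barcoded replicate probes after removing the highest and lowest, and expressing the result as a Z-score relative to the library mean and standard deviation.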

[2] = tested on: TO-3-N3 (biotin conjugate); conditions: RNA library: Library-2
Procedure, shortened: as §1

[3] = tested on: TO-3-N3-2 (biotin conjugate); conditions: RNA library: Library-2
Procedure, shortened: as §1

[4] = tested on: TO-N3 (biotin conjugate); conditions: RNA library: Library-2
Procedure, shortened: as §1

[5] = tested on: TO-N3-2 (biotin conjugate); conditions: RNA library: Library-2
Procedure, shortened: as §1

| Sequence | pull-down binding Z-score [1] | pull-down binding Z-score [2] | pull-down binding Z-score [3] | pull-down binding Z-score [4] | pull-down binding Z-score [5] |
| --- | --- | --- | --- | --- | --- |
| UUGUGAAACACAGGUGUUUUUUAACCUCAC [hsa-mir-6841] | -0.237 | 0.199 | 0.0964 | 0.172 | 0.257 |
| UUGUGAUGUUUACCGUUUAAAUCCACGG [hsa-mir-125b-1] | -0.878 | 0.0416 | -0.313 | 0.107 | 0.078 |
| UUGUGGCAAUACAG [hsa-mir-8068] | 0.635 | -0.437 | -0.166 | -0.425 | -0.0186 |
| UUGUGGCUUUGGGUGGAUAUUAAUCAGCCACAG [hsa-mir-383] | 0.747 | 0.257 | 0.274 | 0.0969 | 0.0594 |
| UUGUGUAUGUACUUAGCUGUACUAUA [hsa-mir-1244-1_1244-4_1244-2_1244-3] | 0.509 | -0.689 | -0.417 | -0.627 | -0.486 |
| UUGUGUCCAUCAUGCAACAA [hsa-mir-802] | -1.17 | -0.49 | -0.248 | -0.144 | 0.396 |
| UUGUGUGGUAUCCGUAUAGUCACAG [hsa-mir-10b] | -0.0547 | -0.416 | -0.634 | -0.277 | -0.0857 |
| UUGUUACAUUUUAGGAUUGCUUGCCCCUUGCUCCAAUGGUGCAGGCAGAAGAAAUGCAAACAA [hsa-mir-3973] | -0.551 | -0.0993 | -0.0806 | 0.135 | 1.25 |
| UUGUUCGUUGCAUUUUUAGGAACAA [hsa-mir-3613] | 1.4 | -1.11 | -0.623 | -1.52 | -1.23 |
| UUGUUCUGAUGUACUACGACAA [hsa-mir-7-3] | -1.28 | -0.716 | -0.294 | -0.672 | -0.186 |
| UUGUUGUUAUUACU [hsa-mir-378d-1] | -0.945 | -0.148 | -0.259 | -0.378 | -0.877 |
| UUUAAGACACCCUGUACCUUAAA [hsa-mir-3121] | -1.57 | -0.44 | -0.305 | -0.415 | -0.346 |
| UUUACAUAUAAAUUUCUAUUUGU [hsa-mir-4503] | -1.51 | 0.81 | 0.317 | 0.596 | -0.557 |
| UUUACAUGCUACAGUCAAGAUGCGAA [hsa-mir-15b] | -0.982 | 0.288 | 0.0265 | 0.275 | -0.147 |
| UUUACCAUUACUUUCAAUGGCAAA [hsa-mir-548a-3] | -0.644 | -1.16 | -0.786 | -1.76 | -1.82 |
| UUUACUUUUGGCCUCAAGUCAUUGCAGUAAA [hsa-mir-4796] | -0.453 | -0.696 | -0.635 | -0.832 | -1.18 |
| UUUAGAAAAGAGAAUUCCAAA [hsa-mir-1252] | -1.48 | -0.294 | -0.206 | -0.315 | -0.676 |
| UUUAGAUUUAAAUAGUGAUUGUCUAG [hsa-mir-29b-1] | 0.526 | 0.267 | -0.0424 | 0.194 | -0.27 |
| UUUAGUAUGCCACAUUUCUAAA [hsa-mir-4282] | -1.54 | -0.601 | -0.374 | -0.757 | -0.699 |

| Sequence | pull-down binding Z-score [1] | pull-down binding Z-score [2] | pull-down binding Z-score [3] | pull-down binding Z-score [4] | pull-down binding Z-score [5] |
| --- | --- | --- | --- | --- | --- |
| UUUAUGCCUGUUAGCAUGAAAAAAGAGGCUGAGAA [hsa-mir-7515] | -0.395 | -0.5 | 0.165 | -0.368 | 0.0418 |
| UUUCAGAUAACUCGGGA [hsa-mir-4320] | -0.732 | 0.173 | -0.229 | 0.116 | 0.00433 |
| UUUCCCAUUAUUUUAAUUGCGAA [hsa-mir-570] | -0.975 | -0.699 | -0.363 | -0.927 | -1.16 |
| UUUCUAUAACUGGAUGAAA [hsa-mir-498] | -0.372 | -0.457 | -0.431 | -0.488 | -0.778 |
| UUUCUCUUAUGUGAAAAAAAAGAAG [hsa-mir-525] | -1.41 | -0.283 | -0.174 | -0.463 | -0.745 |
| UUUCUCUUGUCCAAAGGAAAAGAAG [hsa-mir-524] | -0.493 | -0.644 | -0.376 | -0.636 | -0.747 |
| UUUCUCUUGUCUAAAAGAAAAGAAA [hsa-mir-518f] | -0.201 | -0.761 | -0.281 | -0.8 | -0.969 |
| UUUCUGAAUUUGUGAGA [hsa-mir-4463] | -0.0109 | -0.00836 | -0.191 | -0.277 | -0.751 |
| UUUCUGUUGUCUAAAAGAAAAGAAA [hsa-mir-527] | 0.0533 | -0.325 | -0.186 | -0.383 | -0.575 |
| UUUCUGUUGUCUAAAAGAAGAGAAA [hsa-mir-518a-2] | 0.832 | 0.159 | -0.0883 | 0.171 | -0.273 |
| UUUCUGUUGUCUGAAAGAAAAGAAC [hsa-mir-523] | -0.976 | -0.301 | 0.0657 | -0.0983 | 0.513 |
| UUUCUGUUGUCUGAAAGAAGAGAAA [hsa-mir-526b_518a-1] | 0.288 | -0.47 | -0.214 | -0.697 | -0.584 |
| UUUCUGUUGUCUGAAAGCAGA [hsa-mir-515-1_515-2] | -0.445 | 0.216 | 0.223 | 0.262 | -0.0707 |
| UUUCUUAAAUUUUAUAUAUUGGAA [hsa-mir-1284] | -0.71 | 0.193 | -0.0723 | -0.124 | -1.11 |
| UUUGCAUCUGGACGACGAAU [hsa-mir-409] | -0.465 | -0.355 | -0.0371 | -0.021 | 0.523 |
| UUUGCCAAUAAAAGUAAUGACAAA [hsa-mir-548ah] | -1.16 | 0.507 | 0.181 | 0.226 | -0.39 |
| UUUGCCAGAGCUACAAAGGCAAA [hsa-mir-561] | 0.627 | -0.527 | -0.521 | -0.845 | -0.512 |
| UUUGCCAUUAAAAGUAACGACAAA [hsa-mir-548a-1] | -0.965 | -0.873 | -0.389 | -1.11 | -0.81 |
| UUUGCCAUUAAAAGUAAUGCGGCCAA [hsa-mir-548o-2] | -1.43 | -0.219 | 0.0369 | -0.0582 | -0.13 |
